Data: patent US20210214432A1 (Y BIOLOGICS, published 2021)
Residue numbers refer to the chain shown, from its start.

T1: DLK1-hFc fusion protein (extracellular region of human DLK1 fused with human Fc) (human, UniProt P80370 24-303)
T1 construct: The ELISA text says 'DLK1 protein'/'antigen DLK1' coated at 100 ng/well; also called hDLK1; DLK1 antigen
T1 sequence: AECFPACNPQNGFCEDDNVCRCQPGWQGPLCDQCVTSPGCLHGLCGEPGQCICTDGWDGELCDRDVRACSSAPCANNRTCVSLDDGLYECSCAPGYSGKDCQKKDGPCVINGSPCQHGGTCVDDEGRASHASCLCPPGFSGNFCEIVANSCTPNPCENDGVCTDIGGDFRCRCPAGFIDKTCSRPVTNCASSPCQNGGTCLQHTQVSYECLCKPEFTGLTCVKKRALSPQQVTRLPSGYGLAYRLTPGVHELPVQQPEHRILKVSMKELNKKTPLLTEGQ

T2: human DLK1 present on the cell surface (DLK1-overexpressing MIA PaCa-2 cells); SK-N-F1 cells endogenously … (human, UniProt P80370 24-383)
T2 sequence (looked up): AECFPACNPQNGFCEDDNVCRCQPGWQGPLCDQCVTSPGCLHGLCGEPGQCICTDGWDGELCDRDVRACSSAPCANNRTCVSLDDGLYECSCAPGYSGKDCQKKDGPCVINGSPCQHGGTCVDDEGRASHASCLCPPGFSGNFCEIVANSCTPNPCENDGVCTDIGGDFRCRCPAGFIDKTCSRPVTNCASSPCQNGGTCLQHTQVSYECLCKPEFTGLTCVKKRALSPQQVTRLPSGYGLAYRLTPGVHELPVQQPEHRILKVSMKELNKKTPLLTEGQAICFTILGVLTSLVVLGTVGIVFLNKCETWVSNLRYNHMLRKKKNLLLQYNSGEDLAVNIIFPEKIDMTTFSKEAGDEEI

B1: human anti-DLK1 monoclonal antibody 35E2 (antibody, V domains shown)
VH: QVQLVESGGGVVQPGRSLRLSCAASGFTFSSYAMHWVRQAPGKGLEWVAVIYSGGSTYYADSVKGRFTISRDNSKNTLYLQMNSLRAEDTAVYYCAREGSYDVMTYTRIGGYFDYWGQGALVTVSS
VL: DIQMTQSPSSVSASVGDRVTITCRASQGISDWVAWYQQKPGKAPKLLIYAASSLQSGVPSRFSGSGSGTEFSLTISNLQPEDFATYYCQQANSFPLTFGPGTKVEIK
notes: Converted from scFv to IgG
B2: human anti-DLK1 monoclonal antibody 20D3 (antibody, V domains shown)
VH: QMQLVQSGGGLVQPGRSLRLSCAASGFTFDDYAMHWVRQAPGKGLEWVSGISWNSGSIGYADSVKGRFTISRDNAKNSLYLQMNSLRAEDTAVYYCTKGPGLATGKVYFNSWGQGTQVTVSS
VL: DIQMTQSPSSVSASVGDRVTITCRASQRISSWLAWYQQKPGRAPKLLIHSASTLHNGVPSRFSGSASGTDFTLTISSLQPEDFAIYYCQQGHSFPYTFGQGTKLDIK
notes: Converted from scFv to IgG
B3: human anti-DLK1 monoclonal antibody 18A5 (antibody, V domains shown)
VH: QVQLVQSGGAVVQPGHSLRLSCEASGFKFKDYGMHWVRQAPGKGLEWLAVISHDGRNKNYADSVKGRLTISRDNSKNTLSFQMNSLRAEDTAVYYCVRDWSYAFDIWGQGTLVTVSS
VL: DIQMTQSPSFLSASVGDRVNITCRASQDISRRLAWYQQKPGKAPKLLIYGAASLQSAVASRFSGSGSGTEFTLTISSLQPEDFANYYCQQIYTTPLTFGGGTKVEIK
notes: Converted from scFv to IgG; also called DLK1-18A5
B4: human anti-DLK1 monoclonal antibody variant 18A5_AM_1A12 (antibody, V domains shown)
VH: B3 VH with A10G, H16G, E23A
VL: DIQMTQSPSFLSASVGDRVTITCRASHDISSSLAWYQQKSGKAPKLLIYSASNLKSGVPSRFSGSGSGTDFSLTISSLQPEDFATYYCQQSYTTVLTFGGGTKLEIK
B5: human anti-DLK1 monoclonal antibody variant 18A5_LS_1A10 (antibody, V domains shown)
VH: B3 VH
VL: DIQMTQSPSSLSASLGDRVTITCRASQGISSALAWYQQKPGKAPKLLIYAASSLQSGVPSRFSGSGSGTDFTLTINSLQPEDFATYYCQQSYTTPLTFGGGTKVEIK
B6: human anti-DLK1 monoclonal antibody 27F7 (antibody, V domains shown)
VH: QMQLVESGGGLVKPGGSLTLSCDATGFNFGSYYMNWVRQAPGKGLEWLAHISSTGRTIYYADSVKGRFTISRDNAKSSLDLQMNSLRAEDTAVYYCARDQGYPFGMDVWGHGTTVTVSS
VL: QLVLTQPSSVSGAPGQRVTISCTGSSSNIGAGYDVDWYQQLPGTAPKLLIYGNTNRPSGVPDRFSGSKSGTSASLAITGLQAEDDSDYYCQSYDSSLSAWVFGGGTKLTVL
notes: Converted from scFv to IgG
B7: human anti-DLK1 monoclonal antibody 17B11 (antibody, V domains shown)
VH: QVQLVESGGTLVQPGGSLRLSCAASGFTFSSHAMSWVRQTPGKGLEWVSSITKSGSGTYSADSVKGRFTISRDNSKNTLYLQMNSLRAEDTAVYYCTREGLGYYYGMDVWGQGTTVTVSS
VL: QLVLTQPPSVSGAPGQRVIISCTGSSSNIGAGYDVHWYQQLPGTAPRLLIYGSTNRPSGVPDRFSGSKSGTSASLAITGLQAEDEADYYCQSYDNSLSAHYVFGTGTKVTVL
notes: Converted from scFv to IgG (pNATVH/pNATVL, HEK293E)

How the values were obtained:
[1] = target: T1, DLK1-hFc fusion protein (extracellular …); assay: ELISA, coated DLK1 antigen, IgG titrated 100 nM to 0.046 nM, GraphPad Prism fit
Method: First, 100 ng of DLK1 protein per well was seeded into an immuno-96 microwell plate using a coating buffer and surface-fixed at 4° C. overnight, PBS-T containing 200 μl of 4% skim milk powder was added to all wells, and then reacted for 1 hour at 37° C. to prevent nonspecific protein binding. Then, 200 μl of each cultured single scFv phage was added and reacted at 37° C. for 2 hours, washed three times with 200 μl of PBS-T, diluted at 1:2000 with mouse anti-M13-HPR antibody (GE healthcare, UK) conjugated with HRP (horseradish peroxidase), and reacted at 37° C. for 1 hour. The resulting product was washed three times with PBS-T again, and 10 μl of 30% hydrogen peroxide (H₂O₂) and a tablet of 4 mg OPD (o-phenylenediamine dihydrochloride, Sigma, USA) were added to 10 ml of PC buffer (0.1M Na₂HPO₄, 0.005M Na-citrate, pH 5.0) and reacted in the absence of light for 10 minutes. Then, the reaction was stopped with 50 μl of 2.5M sulfuric acid (H₂SO₄), and absorbance was measured at 490 nm using a spectrophotometer (SpectraMax M5 spectrophotometer, Molecular Devices, USA).

[2] = target: T2, human DLK1 present on the cell surface …; assay: cell-based or functional assay
[3] = target: T2, human DLK1 present on the cell surface …; assay: FACS, DLK1-overexpressing MIA PaCa-2 cells, antibody titrated 1/3 from 10 µg/ml
Method: Then, the cells were washed with cold PBS and then cultured at 4° C. for 1 hour using an anti-human IgG secondary antibody (Vector, USA) conjugated with fluorescein isothiocyanate (FITC, Vector, USA) fluorescence. Fluorescently stained cells were suspended in 500 μl of PBS containing 2% FBS (fetal bovine serum) and analyzed using a FACSCanto™ II flow cytometer (BD Biosciences, USA) and the amount of sample required to reach 50% of the maximum effect (EC₅₀) was measured.

Binder	Kd [1]	EC50 of cytotoxicity of 18A5-Fab ZAP in DLK1-overexpressing MIA PaCa-2 cells [2]	EC50 [3]	EC50 of cytotoxicity of 18A5_AM_1A12-Fab ZAP in DLK1-overexpressing MIA PaCa-2 cells [2]	EC50 of cytotoxicity of 18A5_LS_1A10-Fab ZAP in DLK1-overexpressing MIA PaCa-2 cells [2]
B1	330 pM	–	–	–	–
B2	54000 pM	–	–	–	–
B3	520 pM	0.002 pM	0.131 µg/mL	–	–
B4	13 pM	–	0.0903 µg/mL	0.0026 pM	–
B5	47 pM	–	0.12 µg/mL	–	0.0011 pM
B6	220 pM	–	–	–	–
B7	7190 pM	–	–	–	–
